Laboratory results published in patent US20060014927A1 (US Dept. of Health and Human Services, published 2006).
Bridges are numbered along the chain shown (N, C = ends). [ ]: non-standard residue; d: D form. Gla = N[C@@H](CC(C(=O)O)C(=O)O)C(=O)O; Aad = N[C@@H](CCCC(=O)O)C(=O)O

B1: cyclo(CH2CO-Adi1-Leu2-Tyr3-Adi4-Asn5-Val6-Gly7-Met8-Tyr9-Cys)-amide (peptide)
peptide: {CH2CO}-[Aad]LY[Aad]NVGMYC-NH2
modifications: thioether N-10
notes: Synthetic thioether-cyclised, non-phosphorylated peptide
B2: cyclo(CH2CO-Adi1-Leu2-Tyr3-Glu4-Asn5-Val6-Gly7-Met8-Tyr9-Cys)-amide (peptide)
peptide: {CH2CO}-[Aad]LYENVGMYC-NH2
modifications: thioether N-10
notes: as for B1
B3: cyclo(CH2CO-Gla1-Leu2-Tyr3-Glu4-Asn5-Val6-Gly7-Met8-Tyr9-Cys)-NH-Ala-Ala-Val-Ala-Leu-Leu-Pro-Ala-Val-Leu-Leu-Ala-Leu-Leu-Ala-Pro (peptide)
peptide: {CH2CO}-[Gla]LYENVGMYCAAVALLPAVLLALLAP-NH2
modifications: thioether N-10; not fully specified; printed as cyclo(CH2CO-Gla1-Leu2-Tyr3-Glu4-Asn5-Val6-Gly7-Met8-Tyr9-Cys)-NH-Ala-Ala-Val-Ala-Leu-Leu-Pro-Ala-Val-Leu-Leu-Ala-Leu-Leu-Ala-Pro
B4: cyclo(CH2CO-Gla1-Leu2-Tyr3-Glu4-Asn5-Val6-Gly7-Met8-Tyr9-Cys)-amide (peptide)
peptide: {CH2CO}-[Gla]LYENVGMYC-NH2
modifications: thioether N-10
SMILES: CSCC[C@@H]1NC(=O)CNC(=O)[C@H](C(C)C)NC(=O)[C@H](CC(N)=O)NC(=O)[C@H](CCC(=O)O)NC(=O)[C@H](Cc2ccc(O)cc2)NC(=O)[C@H](CC(C)C)NC(=O)[C@H](CC(C(=O)O)C(=O)O)NC(=O)CSC[C@@H](C(N)=O)NC(=O)[C@H](Cc2ccc(O)cc2)NC1=O
notes: Synthetic thioether-cyclised, non-phosphorylated peptide (L = S)

Key:
[1] = biological target: T1, recombinant GST-Grb2 SH2 protein (UniProt P62993 60-152); assay: Biacore SPR competition; inhibitor mixed with GST-Grb2 SH2 (150-250 nM), binding to immobilised biotin-SHC(pTyr-317)-9-mer as competitor
T1 construct: not shown: glutathione S-transferase (GST) fusion partner
T1 sequence (P62993 60-152): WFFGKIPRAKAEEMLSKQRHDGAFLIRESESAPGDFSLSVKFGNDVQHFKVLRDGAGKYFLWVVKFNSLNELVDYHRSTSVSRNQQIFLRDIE
Method: (§1) The competitive binding affinity of the present inventive compounds was assessed using Biacore Surface Plasmon Resonance (SPR) methods utilizing a Biacore 2000 instrument. […] Specifically, competitive binding assays were carried out at 5 μl/min flow rate, with GST-Grb2-SH2 (150-250 nM) and a cyclic peptide inhibitor (10 nM-2 mM) in phosphate-buffered saline (PBS), pH 7.4, containing 0.01% P-20 surfactant (Biacore, Inc., Piscataway, N.J.) for a total of 10 min. The change in response units (RU) at equilibrium was measured from the […] and the percent of control (no added peptide) was calculated. […] The results represent the mean value of at least two independent experiments.

[2] = biological target: T1, recombinant GST-Grb2 SH2 protein; assay: comparison with the Glu1 analogue as reference; assay not named in the sentence (Biacore competition of Example 7 understood)
Method: as §1

Grb2 adapter protein = biological target: T2, Grb2 adapter protein (UniProt P62993 1-217); assay: MDA-MB-453 lysates incubated with inhibitor; anti-Grb2 co-immunoprecipitation, anti-pTyr Western blot; p185erbB-2 as competitor
T2 construct: Endogenous protein in cell lysates or whole cells
T2 sequence (P62993 whole entry): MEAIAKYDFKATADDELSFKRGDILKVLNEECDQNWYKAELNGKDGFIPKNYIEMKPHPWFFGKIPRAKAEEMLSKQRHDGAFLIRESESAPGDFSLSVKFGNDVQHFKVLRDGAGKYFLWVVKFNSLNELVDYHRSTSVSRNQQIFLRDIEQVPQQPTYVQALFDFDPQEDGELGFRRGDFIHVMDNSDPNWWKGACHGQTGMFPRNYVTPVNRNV
Method: Cell lysates were prepared from the serum-treated erbB-2-overexpressing breast cancer cell line MDA-MB-453 using 1% Triton X-100 in PBS containing 0.2 mM NaVO₄. Lysates were incubated with the present inventive cyclic peptide inhibitors specified in Example 1 and Example 12, at concentrations of 0.1, 0.4, 2, 10 and 50 μM. No inhibitor was used as a control. […] Grb2 and associated Grb2-binding proteins were immunoprecipitated from each lysate (500 μg) with anti-Grb2 antibodies and collected using protein A Sepharose using methods previously described. Immunoprecipitated proteins were separated by SDS-PAGE on 8-16% gradient gels (Novex). pTyr-containing proteins were detected by Western blotting using anti-phosphotyrosine antibodies (Upstate Biotechnology Inc.). Previous experiments have shown that a major tyrosine phosphorylated protein in MDA-MB-453 cells is p185^erbB-2, which is overexpressed as a consequence of gene amplification. […] A dose-dependent inhibition of the p185^erbB-2 receptor association with the Grb2 adapter protein was observed.

Row | Binder | IC50 [1] [µM] | fold improvement of binding efficacy over Glu^1 [2] [fold] | IC50 (Grb2 adapter protein) [nM]
1 | B1 | 3.05 | – | –
2 | B2 | 3.45 | 6 | –
3 | B3 | – | – | 2000
4 | B4 | 0.64 | 31 | 2000
